Laboratory results: patent US20050176062A1, “Method of identifying ligands for nuclear receptors” (priority 2002, published 2005)
Each block holds one molecule with its values, some of them ahead of it. Where no end group is shown, it is not given here. The star is where a group is joined. Biotin = O=C1N[C@H]2[C@H](CS[C@H]2CCCCC(=O)*)N1

B1: (His)6ERα-LBD301-553 (receptor, UniProt P03372 301-553, looked up)
chain: SKKNSLALSLTADQMVSALLDAEPPILYSEYDPTRPFSEASMMGLLTNLADRELVHMINWAKRVPGFVDLTLHDQVHLLECAWLEILMIGLVWRSMEHPGKLLFAPNLLLDRNQGKCVEGMVEIFDMLLATSSRFRMMNLQGEEFVCLKSIILLNSGVYTFLSSTLKSLEEKDHIHRVLDKITDTLIHLMAKAGLTLQQQHQRLAQLLLILSHIRHMSNKGMEHLYSMKCKNVVPLYDLLLEMLDAHRLHAPT
notes: Control protein, expressed in E. coli, purified by Ni-NTA and size exclusion; Tested alone, after preincubation with E2 (10 µM) and with the antagonist BA31257; also called ER-LBD; not shown: (His)6 tag
B4: biotinylated 24-mer GRIP1 peptide (Biotinyl-GSTHGTSLKEKHKILHRLLQDSSS-NH2) (peptide)
peptide: Biotin-GSTHGTSLKEKHKILHRLLQDSSS-NH2
SMILES: CC[C@H](C)[C@H](NC(=O)[C@H](CCCCN)NC(=O)[C@H](Cc1c[nH]cn1)NC(=O)[C@H](CCCCN)NC(=O)[C@H](CCC(=O)O)NC(=O)[C@H](CCCCN)NC(=O)[C@H](CC(C)C)NC(=O)[C@H](CO)NC(=O)[C@@H](NC(=O)CNC(=O)[C@H](Cc1c[nH]cn1)NC(=O)[C@@H](NC(=O)[C@H](CO)NC(=O)CNC(=O)CCCC[C@@H]1SC[C@@H]2NC(=O)N[C@@H]21)[C@@H](C)O)[C@@H](C)O)C(=O)N[C@@H](CC(C)C)C(=O)N[C@@H](Cc1c[nH]cn1)C(=O)N[C@@H](CCCNC(=N)N)C(=O)N[C@@H](CC(C)C)C(=O)N[C@@H](CC(C)C)C(=O)N[C@@H](CCC(N)=O)C(=O)N[C@@H](CC(=O)O)C(=O)N[C@@H](CO)C(=O)N[C@@H](CO)C(=O)N[C@@H](CO)C(N)=O
notes: Synthetic (Mimotopes #814201), immobilized on a streptavidin coated SA-chip; also called biotinylated GRIP1 peptide; immobilized GRIP1 peptide

Legend:
(His)6RORa-LBD304-556 = biological target: T1, (His)6RORa-LBD304-556 (Homo sapiens, UniProt P35398); assay: X-ray crystallography of (His)6RORa-LBD304-556 (ligand in the ligand binding pocket); conditions: 1.88 Å diffraction data
T1 construct: Crystals are obtained for the construct (His)6RORa-LBD304-556 and diffraction data are collected to 1.88 Å; 6xHis (N); made in house; host or cells: Sf9 insect cells (baculovirus)
T1 sequence (P35398 304-556 isoform P35398-1): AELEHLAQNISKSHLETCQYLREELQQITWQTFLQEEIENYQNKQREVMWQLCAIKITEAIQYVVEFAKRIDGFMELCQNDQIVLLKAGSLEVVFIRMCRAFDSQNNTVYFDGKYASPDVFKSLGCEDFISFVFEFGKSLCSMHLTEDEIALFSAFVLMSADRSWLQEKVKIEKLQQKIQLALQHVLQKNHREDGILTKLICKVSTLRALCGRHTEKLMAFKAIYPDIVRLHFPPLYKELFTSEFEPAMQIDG
Source text: Crystals are obtained for the construct (His)6RORa-LBD304-556 and diffraction data are collected to 1.88 Å at the synchrotron (SNBL, ESRF Grenoble). The structure is solved ab initio with a Hg-derivative.
The excellent fit to the electron density allows the identification of the ligand to be cholesterol. […] Based on the X-ray structure, proposals are made for cholesterol derivatives, and in particular cholesterol sulfate is proposed as a ligand with a higher affinity to RORa than cholesterol, because of the electrostatic interactions with two Arg-side chains at the hydrophilic end of the LBP. Confirmation of the presence of cholesterol and comparative binding studies between cholesterol and cholesterol sulfate are further achieved by mass spectrometry on construct (His)6RORa-LBD269-556.

(His)6RORa-LBD269-556 = biological target: T2, (His)6RORa-LBD269-556 (Homo sapiens, UniProt P35398); assay: GC-MS of the hexane extract of (His)6RORa-LBD269-556 (identification of bound ligands); conditions: GC/MS after BSTFA derivatization, protein from Sf9 cells
T2 construct: Extraction is performed by mixing 2 ml of a solution containing (His)6RORa-LBD269-556 at 4.6 mg/ml; made in house; host or cells: Sf9 insect cells (baculovirus)
T2 sequence (P35398 269-556 isoform P35398-1): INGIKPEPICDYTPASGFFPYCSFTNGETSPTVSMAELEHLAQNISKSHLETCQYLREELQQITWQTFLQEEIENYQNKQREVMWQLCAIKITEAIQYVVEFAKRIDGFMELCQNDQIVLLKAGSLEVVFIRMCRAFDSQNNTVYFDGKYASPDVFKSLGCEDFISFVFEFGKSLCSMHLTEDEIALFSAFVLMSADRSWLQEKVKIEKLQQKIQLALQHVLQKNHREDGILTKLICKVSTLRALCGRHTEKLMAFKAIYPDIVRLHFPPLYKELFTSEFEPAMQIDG
Method: Extraction is performed by mixing 2 ml of a solution containing (His)6RORa-LBD269-556 at 4.6 mg/ml and 2 ml of hexane and shaking for 1 minute. The aqueous phase is extracted a second time using the same procedure. The organic phases are pooled and evaporated to dryness under nitrogen. The extract is dissolved in […] pyridine. An aliquot of 10 ml is derivatized with 5 ml N,O-bistrimethylsilyl-trifluoroacetamide (BSTFA) at 60° C. for 30 min. Reference compounds cholesterol and 7-dehydrocholesterol (Sigma) are derivatized following the same procedure. For structure elucidation, the underivatized and the derivatized sample and reference compounds are analyzed by GC/MS, respectively.
The GC/MS system consists of a Carlo Erba Mega 5160 gas chromatograph, which is coupled to a Finnigan TSQ-700 mass spectrometer equipped with an electron impact ion source (EI). The ion source is heated to a temperature of 150° C., filament current is 20 mA, electron multiplier voltage 1000V, and the conversion dynode is set to 15 kV. The scan range is m/z 100-700 with a scan time of 2 seconds. The gas chromatographic separation is performed on a 10 m×0.2 mm Duran glass column coated with a […] film of SDPE-08 using hydrogen as carrier gas at a constant flow rate of 2.5 ml/min. The temperature program is set to 100-330° C. at a rate of 6° C./min. The GC/MS interface temperature is set to 350° C. […]

[1] = biological target: biotinylated 24-mer GRIP1 peptide (Biotinyl-…-NH2) (mouse); assay: Biacore SPR, biotinylated peptide on streptavidin SA-chip, RORα-LBD injected
[2] = biological target: B4; assay: Biacore SPR, ER-LBD preincubated with E2 (10 µM) against ER-LBD without ligand
[3] = biological target: T3, ERα-LBD / GRIP1 peptide interaction (Homo sapiens, UniProt P03372); assay: Biacore binding assay of (His)6ERa-LBD301-553 to immobilized GRIP1 peptide (positive control); conditions: basal level, no ligand; read-out: apparent Kd of ERa-LBD binding to immobilized GRIP1 peptide
T3 construct: Control proteins (His)6ERα-LBD301-553 and (His)6cytohesin-1 are cloned and expressed in E. coli; (His)6; made in house; host or cells: E. coli
T3 sequence (P03372 301-553): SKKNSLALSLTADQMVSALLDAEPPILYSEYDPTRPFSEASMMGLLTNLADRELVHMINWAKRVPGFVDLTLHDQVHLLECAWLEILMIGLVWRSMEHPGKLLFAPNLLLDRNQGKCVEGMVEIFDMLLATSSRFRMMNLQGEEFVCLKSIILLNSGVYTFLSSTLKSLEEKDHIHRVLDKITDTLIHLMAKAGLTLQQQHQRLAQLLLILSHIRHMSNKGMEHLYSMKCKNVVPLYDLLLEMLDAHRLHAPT

[4] = biological target: (His)6RORα-LBD269-556 (human) (UniProt P35398); assay: Biacore SPR competition: free 20-mer peptide inhibits binding of RORα-LBD to the immobilized 24-mer GRIP1 peptide
(His)6ERα-LBD301-553 [5] = biological target: B1; assay: Biacore SPR, biotinylated peptide on SA-chip, ER-LBD preincubated with E2 (10 µM)
(His)6ERα-LBD301-553 [6] = biological target: B1; assay: Biacore SPR, biotinylated peptide on SA-chip, ER-LBD without added ligand (basal)

SIC-% of compound in the extract of (His)6RORa-LBD269-556 ((His)6RORa-LBD269-556): 77.4%
Molecule: CC(C)CCC[C@@H](C)[C@H]1CC[C@H]2[C@@H]3CC=C4C[C@@H](O)CC[C@]4(C)[C@H]3CC[C@]12C [Cholesterol]
ligand found in the LBP by electron density ((His)6RORa-LBD304-556): unambiguous identification of the ligand as cholesterol

Kd [1]: 241 nM
Molecule: (His)6RORα-LBD269-556 (from UniProt P35398 269-523) (receptor)

IC50 [4]: 3000 nM
B3: non-biotinylated 20-mer GRIP1 peptide … (peptide)
peptide: GTSLKEKHKILHRLLQDSSS
modifications: not fully specified

The remaining lines, values behind:

Molecule: CC(C)CCC[C@@H](C)[C@H]1CC[C@H]2C3=CC=C4C[C@@H](O)CC[C@]4(C)[C@H]3CC[C@]12C [7-Dehydrocholesterol]
SIC-% of compound in the extract of (His)6RORa-LBD269-556 ((His)6RORa-LBD269-556): 18.3%

Molecule: B1
fold increase of binding affinity [2]: 6.5 fold

B2: (His)6ERa-LBD301-553: control protein, His-tagged ERα ligand binding domain 301-553, cloned and expressed in E. coli (protein)
chain: SKKNSLALSLTADQMVSALLDAEPPILYSEYDPTRPFSEASMMGLLTNLADRELVHMINWAKRVPGFVDLTLHDQVHLLECAWLEILMIGLVWRSMEHPGKLLFAPNLLLDRNQGKCVEGMVEIFDMLLATSSRFRMMNLQGEEFVCLKSIILLNSGVYTFLSSTLKSLEEKDHIHRVLDKITDTLIHLMAKAGLTLQQQHQRLAQLLLILSHIRHMSNKGMEHLYSMKCKNVVPLYDLLLEMLDAHRLHAPT
modifications: left off: small tags and cut ends
Kd [3]: ~450 nM

Molecule: B4
Kd ((His)6ERα-LBD301-553 [5]): ~70 nM | Kd ((His)6ERα-LBD301-553 [6]): ~450 nM
